Test system: HEK293 cells
Assay type: cell-based, human
Settings: circular RNA encoding Gluc with the listed IRES (UTR truncated to 675 nt) transfected into HEK293 cells; supernatant after 24 hours

| Molecule | Expression (luminescence from secreted Gluc protein) |
| --- | --- |
| Poecivirus BCCH-449 (nucleic acid, listed as Poecivirus sp., lipid formulation) DNA: ACTACACAATCGCAACACGCGCAAGTTTGTAGTTTGATTGGCGTGCAAATGTCAAATCAAGCATATAACACAATTTGGTGGCTGTTGGTGTTTGTTATAGGAATTTTGGTTGTGTTGAAATTGTGGATGTGTAGGAAATATGCACAATTACGTCAGCGTCAGGAGTTTTATAACCTGGCGCAACACCAAAATGGTCTTCGCGCTTTAACATCACCAGCGAGGTGTAAACAAATTGAAGTTGAATTAGATCGTGTATAGGCCAGGGAACCATCCCTCCCAACGCCACATCTTGTGGGGAAGTTGGGATAATGGTGGGTCTATATGAATTGGTCTGTAGACCCACAGTGAAGAGTGAATAGTATGCTTGCGGTTCCATTTGTTAATGGTCTAGCATGGGTGGGGGCGGCAACCCCGTGAGGGGTTCCCCACTGGCCAAAAGCCCAGGGGTTAGTCATTTCAACCAAGGAAGCTGGTAACCTGGTGACCTGAACTTGAGTGGTGAGACCCCCTTGCTAGAGTGTGTAAACCGATTGTAAGCATTTTGTTTGCTTAGTATCTGTGGTATAAGCAGTCAATTTTGTATAGGCTCAAGGCTGTGGTAGTTAGTAGATGCCCGGAAGGTTATTACTGATCCGGGGACCGTGACTATACATTAGGTAAACCGGTTTAAAAACC | 3.43E+05 |
| Equine rhinitis A virus (nucleic acid, lipid formulation; Equine rhinitis A virus) AAGGGTTACTGCTCGTAATGAGAGCACATGACATTTTGCCAAGATTTCCTGGCAATTGTCACGGGAGAGAGGAGCCCGTTCTCGGGCACTTTTCTCTCAAACAATGTTGGCGCGCCTCGGCGCGCCCCCCCTTTTTCAGCCCCCTGTCATTGACTGGTCGAAGGCGCTCGCAATAAGACTGGTCGTTGCTTGGCTTTTCTATTGTTTCAGGCTTTAGCGCGCCCTTGCGCGGCGGGCCGTCAAGCCCGTGTGCTGTACAGCACCAGGTAACCGGACAGCGGCTTGCTGGATTTTCCCGGTGCCATTGCTCTGGATGGTGTCACCAAGCTGGCAGATGCGGAGTGAACCTTACGAAGCGACACACCTGTGGTAGCGCTGCCCAGAAGGGAGCGGAGCTCCCCCGCCGCGAGGCGGTCCTCTCTGGCCAAAAGCCCAGCGTTAATAGCGCCTTCTGGGATGCAGGAACCCCACCTGCCAGGTGTGAAGTGGACTAAGTGGATCTCCAATTTGGCCTGTTCTGAACTACACCATCTACTGCTGTGAAGAATGTCCTGAAGGCAAGCTGGTTACAGCCCTGATCAGGAGCCCCGCTCGTGACTCTCGATCGACGCGGGGTCAAAAACTGTCTAAGCAGCAGCAGAAACGCGGGAGCGTTTCTTTTTCCTCATTTGTTTC | 3.73E+05 |
| Enterovirus AN12 (nucleic acid, listed as Enterovirus sp., lipid formulation) TACCGCTGCACCAGTGAGCTGGTACGCTAGTACCTTCGCACGGAGTAGATGGCATCCCCCACCCCGTAACTTAGAAGCAAAGTACACATCTGGCCAATAGTGGCGCTGCATCCAGCCGCGCAACGGTCAAGCACTTCTGTTTCCCCGGTCCGCAAGGGTCGTTATCCGCCCAGTCCACTACGGAAAGCCTACTAACCATTGAAGCTATCGAGAGGTTGCGCTCGGCCACGACCCCGGTGGTAGCTCTGAGTGATGGGGCTCGCAAACACCCCCGTGGTAACACGGATGCTTGCCCGCGCGTGCACTCGGGTTCAGCCTATTGGTTGTTCACCTCAACATAGTGTAAATGGCCAAGAGCCTACTGTGCTGGATTGGTTTTCCTCCGGAGCCGTGAATGCTGCTAATCCCAACCTCCGAGCGTGTGCGCACAATCCAGTGTTGCTACGTCGTAACGCGTAAGTTGGAGGCGGAACAGACTACTTTCGGTACTCCGTGTTTCTTTTGTTTTATTTTGAATTTTATGGTGACAATTGCTGAGATTTGCGAATTAGCGACTCTACCGCTGAACATTGCCCTGTACTACCTAATCGCATTTCACAAAACCTCAGAGATACCAAGCTCTTACATTGATCTGCTTGTTTTCCTGAATCTCAAATATAAATTGGAACAAGCAAA | 3.87E+06 |
| Human coxsackievirus A2 (nucleic acid, source: /note="Description of Unknown: Human coxsackievirus A2 sequence") DNA: ACCTTTGTGCGCCTGTTTTATATCCCCACCCCGAGTAAACGTTAGAAGTTACGCAACCCCGATCAATAGTAGGTGTAGCACTCCAGCTGCATCGAGATCAAGCACTTCTGTCTCCCCGGACCGAGTATCAATAGACTGCTAACGCGGTTGAAGGAGAAAACGTTCGTTACCCGGCCAATTACTTCGAGAAGCCCAGTAGTGCCGTGAAAGTTGCGGAGTGTTTCGCTCAGCACTTCCCCCGTGTAGATCAGGCTGATGAGTCACCGCGATCCCCACAGGTGACTGTGGCGGTGGCTGCGTTGGCGGCCTGCCTATGGGGCAACCCATAGGACGCTCTAATACAGACATGGTGCGAAGAGCCTATTGAGCTAATTGGTAGTCCTCCGGCCCCTGAATGCGGCTAATCCTAACTGCGGAGCACATGCCCTCAAACCAGGGGGTGGTGTGTCGTAACGGGTAACTCTGCAGCGGAACCGACTACTTTGGGTGTCCGTGTTTCTTTTTATTCTTATAATGGCTGCTTATGGTGACAATTAAAGAATTGTTACCATATAGCTATTGGATTGGCCATCCGGTGACTAACAAATCGCTCATATACCAGTTTGTTGGTTTTGTTCCCTTATCACATACAGCTCATAACACCCTCTTATATTTACTACAATTGAATAGCAAGAA | 7.75E+07 |
| Equine rhinitis B virus 1 (nucleic acid, lipid formulation; source: /note="Description of Unknown: Equine rhinitis B virus 1 sequence") CGACAGGCACAGGTCGCTCCGAGTTCTAGTAGTGTGGGAACTTGTTACTACTGATGAAACGAGGTAGTGACACTCAGTACCTGCGAACGAGGTCGGGGCCCTCCCTTCTTCCTTCACCCAACTTTCACTTTTCGTTCCACTTTAGCAGGGGTCTTCTTTCTATCCCCCTGGCGGCATTGGAACTAGCCGTCGCGTCTTAACGCGCAGCCCTGAAGGCCCCACACCTTGTGGATCTTGCCGTGGGTATGTTTCTGGCATGTGTTTCTCAAGCCTGCAACCGAAGCCGAACAGCCACATGAACAGTTTGAGCGTGGTAGCGCTGTGTGAGTTGGCGGTGGATCCCCCTCGTGGTAACACGAGCCCCCGTGGCCAAAAGCCCAGTGTTTACAGCACCTCTCACATCCAGGACGACCCCATCCTGGCGCTCACTCTTAGTAGTATGGCTTAGTACGCATTAGGTGGTAAGCCGAGCTCTCCCTCGGCCTTGTTCTGAATGCACACATGTCTAGGGGCTAAGGATGTCCTACAGGTACCCGCACGTAACCTTCAGAGAGTGCGGATCTGAGTAGGAGACCGTGGTGCACTGCTTTACAGATGCAGCCCGGTTTAAAAAGCGTCTATGCCCCTACAGGGTAGCGGTGGGCCGCGCCCTTTCCTTTTAAAACTACTTGTTCT | 1.01E+05 |
| Falcon picornavirus (nucleic acid, lipid formulation; source: /note="Description of Unknown: Falcon picornavirus sequence") CGCTTGGAATAAGTTGAGAGGAATTATGCATGCTAGTTGTGTTTGTTTACAACTAATTGTTCTAATCCAAGTGAAGCTCTTCGCTTGGGGCGGCACGACACTTGCCGTAATTCTTCTACCGTCCCTCCACACCTTGTGGATGAAGGGCCGGATGTGTGGCCTCTGGCTAACCCCTCTCTCTGGGGTGATGCTACTGGATGTTTTACTCCTAGACCAAATCACATGAACTCCTCTTGATCCACTTCGGTGGGGCTATGAGCCTGCGGATTAATAGCTGGCGACAGCTACCCCAGGGGCCAAAAGCCACGGTGTTAGCAGCACCCTCATAGTCTGATGCCCAAGGGCTGATGTTGGGAGCTAGTAGTGTGTGTCTGGCCTATGTTTAGGACTTCTGGCCAAGCGCAGAGGAGTGGGGCTGAAGGATGCCCAGAAGGTACCCGTAGGTAACCTTAAGAGACTATGGATCTGATCTGGGGCCCCCTCACGTGGCTTTACCACGTGTTGGGGGTTAAAAAACGTCTAGGCCCCACCAGCCCACGGGAGTGGGCTTTCCCTTAAAAAGCCCAACAATATTTATGGTGACAATTCACTGTTTCTTCTTTGCAATTTTTGTATTCTTGGACTCCTTATTTTTTGTTTGCTTGATTTTAGTGGACATTCAGATTCAAATACAAA | 3.08E+06 |
| Equine arteritis virus (nucleic acid, lipid formulation; source: /note="Description of Unknown: Equine arteritis virus sequence") GCTCGAAGTGTGTATGGTGCCATATACGGCTCACCACCATATACACTGCAAGAATTACTATTCTTGTGGGCCCCTCTCGGTAAATCCTAGAGGGCTTTCCTCTCGTTATTGCGAGATTCGTCGTTAGATAACGGCAAGTTCCCTTTCTTACTATCCTATTTTCATCTTGTGGCTTGACGGGTCACTGCCATCGTCGTCGATCTCTATCAACTACCCTTGCGACT | 1.89E+05 |
| Enterovirus sp. isolate CPML (nucleic acid, listed as Enterovirus sp., lipid formulation) ACTCTGGTATCACGGTACCTTTGCACGCCTATTTTATACCCCTTCCCCATCGTAACTTAGAAGCAACAAACAAACTGCCCAATAGCAGCACAACACCCAGTTGTGTTAGGGGCAAGCACTTCTGTTTCCCCGGAAGGGTCTGACGGTATGCTGTACCCACGGCAGAAGTATGACCTACCGTTAACCGGCCATGTACTTCGAGAAGCCTAGTACCATTATGAAGGTTGATTGATGTTACGCTCCCCAGCAACCCCAGCTGGTAGTTCTGGTCGATGAGTCTCGGCATTCCCCACGGGCGACCGTGGCCGAGGCTGCGTTGGCGGCCAGCCTACACCATACGGTGTAGGACGTCAAGATACTGACATGGTGTGAAGAGCCTATTGAGCTACGTGGTAGTCCTCCGGCCCCTGAATGCGGCTAATCCTAACTCCGGAGCATCCGCCAGTAAGCCCACTGGAAGGGTGTCGTAATGCGAAAGTCTGGAGCGGAACCGACTACTTTGGGTGTCCGTGTTTCCTGTTTTACTTATTGTTTGGCTGCTTATGGTGACAACTTATAGTTATCATCATAAGCTACTTGGTCTTGCCAACCGGAGAATTATTTGGTTATTTGTTGGTTTCATAAACCTACAGTCGTATTTTCCTGTCTTATTAATTGTTCTCAAAATTAACAACA | 6.83E+07 |
| Guereza hepacivirus (nucleic acid, listed as Hepacivirus sp., lipid formulation) CACTCAATACTACACTCCGCATTTGGGGAGAAGCGCTGGCGTTCGCGGAACCGCGTTAACCATACGCGTAGTACGAGTGCGACAGACCCCGGTGCTACTGGTGGTAGCGAGACACGAGCCGAAGTCTGTGGGGGGAACTCCACTTAGAGGGCATGCCCGGGCGTAGGCTTCTGAGTTGGGATGGGCCCCAACTTGGCCCCTGAGTGGGGGGGTGTTACGACCTGATAGGGTGCGGGCTGGCGCCTACCACTTTCCAGTCGTACATGAGTC | 1.38E+05 |

— US20240245805A1 (Orna Therapeutics, Inc., priority 2020, published 2024)
